In patent US20130267025A1 one finds apoptosis incidence (Hoechst 33342) in PC3 cells treated with Ad-REIC, group treated with the Tctex-1 expression plasmid, apoptosis incidence (Hoechst 33342) in PC3 cells treated with Ad-REIC, group treated with shRNA-Tctex-1 and apoptosis incidence (Hoechst 33342) in PC3 cells treated with Ad-REIC, group treated with the GFP plasmid data, which are given here for one substance.

In assay [1] the target is V5-tagged Tctex-1 (V5-Tctex-1 fusion protein), expressed from pcDNA3.2/V5/GW/D-TOPO (human) (UniProt P63172). Put plainly: cell-based or functional assay.
V5-tagged Tctex-1 (V5-Tctex-1 fusion protein), expressed from pcDNA3.2/V5/GW/D-TOPO (human), sequence (P63172 whole entry, the tested form may be a part): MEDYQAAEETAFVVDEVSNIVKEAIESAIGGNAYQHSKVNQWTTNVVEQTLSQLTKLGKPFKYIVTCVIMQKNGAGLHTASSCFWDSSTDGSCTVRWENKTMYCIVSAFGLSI
Assay [2] addresses endogenous Tctex-1 protein of PC3 human prostate cancer cells (human) (UniProt P63172). Put plainly: cell-based or functional assay.

endogenous Tctex-1 protein of PC3 human prostate cancer cells (human), sequence (P63172 whole entry): as the sequence (P63172 whole entry, the tested form may be a part) above

The substance “REIC/Dkk-3 protein overexpressed from adenovirus REIC/Dkk-3 (Ad-REIC) in PC3 cells (from UniProt Q9UBP4 22-350)” had an apoptosis incidence (Hoechst 33342) in PC3 cells treated with Ad-REIC, group treated with the Tctex-1 expression plasmid in assay [1] of 75%. For the same substance, in assay [2], the apoptosis incidence (Hoechst 33342) in PC3 cells treated with Ad-REIC, group treated with shRNA-Tctex-1 is 15% and the apoptosis incidence (Hoechst 33342) in PC3 cells treated with Ad-REIC, group treated with the GFP plasmid came out at 30%.
